Assay results from patent US20250320281A1.

Columns and labels:
Assay in all cases: cell-based or functional assay
[1] = molecular target: HIV-1 Env of pseudovirus MGRM-F1-008 (HIV-1)
[2] = molecular target: HIV-1 Env of pseudovirus MGRM-F1-020 (HIV-1)
[3] = molecular target: HIV-1 Env of isolate MGRM-D-012 (clade D pseudovirus) (HIV-1)
[4] = molecular target: HIV-1 Env of pseudovirus MGRM-AG-013 (clade CRF_AG) (HIV-1)
[5] = molecular target: HIV-1 94UG114 envelope glycoprotein (Env) on pseudovirus (HIV-1 (isolate 94UG114, clade D))
[6] = molecular target: HIV-1 Env of isolate TRJ0.58 (Acute), clade B, on pseudovirus (HIV-1)
[7] = molecular target: HIV-1 Env of isolate MGRM-D-011 (clade D pseudovirus) (HIV-1)
[8] = molecular target: HIV-1 Env of pseudovirus MGRM-F1-012 (HIV-1)
[9] = molecular target: HIV-1 Env of isolate PVO.4 (Acute), clade B, on pseudovirus (HIV-1)
[10] = molecular target: HIV-1 Env of isolate MGRM-D-003 (clade D pseudovirus) (HIV-1)
[11] = molecular target: HIV-1 Env of isolate MGRM-D-019 (clade D pseudovirus) (HIV-1)
[12] = molecular target: HIV-1 Env of pseudovirus MGRM-AG-002 (clade CRF_AG) (HIV-1)
[13] = molecular target: HIV-1 Env of isolate 92UG024 (clade D pseudovirus) (HIV-1)
[14] = molecular target: HIV-1 Env of pseudovirus MGRM-Chronic-B-020 (HIV-1)
[15] = molecular target: HIV-1 Env of isolate 92UG001 (clade D pseudovirus) (HIV-1)
[16] = molecular target: HIV-1 Env of isolate LAVI_C22 (HIV-1)
[17] = molecular target: HIV-1 Env of isolate MGRM-Chronic-B-004, clade B, on pseudovirus (HIV-1)
[18] = molecular target: HIV-1 Env of pseudovirus MGRM-G-016 (HIV-1, clade G isolate MGRM-G-016)
[19] = molecular target: HIV-1 IAVI-C18 envelope glycoprotein (Env) on pseudovirus (HIV-1)
[20] = molecular target: HIV-1 Env of isolate MGRM-A-006 (HIV-1)
[21] = molecular target: HIV-1 Env of isolate MGRM-AE-008 (subtype AE) (HIV-1)
[22] = molecular target: HIV-1 JRFL Env (pseudovirus) (HIV-1)
[23] = molecular target: HIV-1 Env of isolate JRCSF (subtype B) (HIV-1) (UniProt P20871)
[24] = molecular target: HIV-1 Env of isolate 94UG103 (HIV-1)
[25] = molecular target: HIV-1 Env of isolate MG RM-D-004 (HIV-1)
[26] = molecular target: HIV-1 Env of isolate MGRM-A-012 (subtype A) (HIV-1)
[27] = molecular target: HIV-1 Env of isolate MGRM-AE-005 (subtype AE) (HIV-1)
[28] = molecular target: HIV-1 Env of isolate MGRM-A-008 (subtype A) (HIV-1)
[29] = molecular target: HIV-1 Env of isolate 93UG077 (HIV-1)
[30] = molecular target: HIV-1 Env of isolate MGRM-C-005 (subtype C) (HIV-1)
[31] = molecular target: HIV-1 Env of isolate MG RM-D-003 (HIV-1)
[32] = molecular target: HIV-1 Env of isolate APV-13 (HIV-1)
[33] = molecular target: HIV-1 Env of isolate MGRM-AG-013 (subtype AG) (HIV-1)
[34] = molecular target: HIV-1 Env of isolate MGRM-Chronic-B-008 (subtype B) (HIV-1)
[35] = molecular target: HIV-1 Env of isolate MGRM-Chronic-B-003 (subtype B) (HIV-1)
[36] = molecular target: HIV-1 Env of isolate MGRM-Chronic-B-020 (subtype B) (HIV-1)
[37] = molecular target: HIV-1 envelope glycoprotein (Env) of isolate MGRM-C-015 (HIV-1)
[38] = molecular target: HIV-1 MGRM-D-001 Env (pseudovirus) (HIV-1)
[39] = molecular target: HIV-1 Env of isolate CMU02 (subtype AE) (HIV-1)
[40] = molecular target: HIV-1 Env of isolate 92UG024 (HIV-1)

1443_C16 (PG16) (TCN-116) (antibody), sequence (VH): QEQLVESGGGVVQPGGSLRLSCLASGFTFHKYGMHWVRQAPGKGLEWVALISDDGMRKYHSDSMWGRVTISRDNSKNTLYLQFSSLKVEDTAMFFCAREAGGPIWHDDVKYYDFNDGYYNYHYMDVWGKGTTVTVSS
1443_C16 (PG16) (TCN-116) (antibody), sequence (VL): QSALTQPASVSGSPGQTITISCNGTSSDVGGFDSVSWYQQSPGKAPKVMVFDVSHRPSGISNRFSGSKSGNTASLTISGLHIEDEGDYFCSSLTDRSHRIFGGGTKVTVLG

2G12 (antibody)
IC50 (µg/ml), pseudovirus neutralization [1]: > 50 µg/mL | IC50 (µg/ml), pseudovirus neutralization [2]: > 50 µg/mL | IC50 (µg/ml), pseudovirus neutralization [3]: > 50 µg/mL | IC50 [4]: 0.95 µg/mL | IC50 (µg/ml), pseudovirus neutralization [5]: 13.9 µg/mL | IC50 (µg/ml), pseudovirus neutralization [6]: > 50 µg/mL | IC50 (µg/ml), pseudovirus neutralization [7]: 1.5 µg/mL | IC50 (µg/ml), pseudovirus neutralization [8]: 1.81 µg/mL | IC50 (µg/ml), pseudovirus neutralization [9]: 0.8 µg/mL | IC50 (µg/ml), pseudovirus neutralization [10]: > 50 µg/mL | IC50 (µg/ml), pseudovirus neutralization [11]: > 50 µg/mL | IC50 [12]: 0.54 µg/mL | IC50 (µg/ml), pseudovirus neutralization [13]: 0.42 µg/mL | IC50 (µg/ml), pseudovirus neutralization [14]: 0.2 µg/mL | IC50 (µg/ml), pseudovirus neutralization [15]: > 50 µg/mL | IC50 [16]: > 50 µg/mL | IC50 (µg/ml), pseudovirus neutralization [17]: 8.65 µg/mL | IC50 (µg/ml), pseudovirus neutralization [18]: > 50 µg/mL | IC50, pseudovirus neutralization [19]: > 50 µg/mL

1443_C16 (PG16) (TCN-116) (antibody)
IC50 (µg/ml), pseudovirus neutralization [1]: > 50 µg/mL | IC50 (µg/ml), pseudovirus neutralization [2]: 4.35 µg/mL | IC50 (µg/ml), pseudovirus neutralization [3]: 0.35 µg/mL | IC50 [4]: 0.31 µg/mL | IC50 (µg/ml), pseudovirus neutralization [5]: > 50 µg/mL | IC50 (µg/ml), pseudovirus neutralization [6]: 1.16 µg/mL | IC50 (µg/ml), pseudovirus neutralization [7]: 0.01 µg/mL | IC50 (µg/ml), pseudovirus neutralization [8]: 0.003 µg/mL | IC50 (µg/ml), pseudovirus neutralization [9]: 5.43 µg/mL | IC50 (µg/ml), pseudovirus neutralization [10]: 0.01 µg/mL | IC50 (µg/ml), pseudovirus neutralization [11]: 0.01 µg/mL | IC50 [12]: 0.03 µg/mL | IC50 (µg/ml), pseudovirus neutralization [13]: 24 µg/mL | IC50 (µg/ml), pseudovirus neutralization [14]: > 50 µg/mL | IC50 (µg/ml), pseudovirus neutralization [15]: > 50 µg/mL | IC50 [16]: 0.02 µg/mL | IC50 (µg/ml), pseudovirus neutralization [17]: 0.01 µg/mL | IC50 (µg/ml), pseudovirus neutralization [18]: 11.3 µg/mL | IC50, pseudovirus neutralization [19]: 0.0067 µg/mL

2F5 (antibody)
IC50 (µg/ml), pseudovirus neutralization [1]: 1.61 µg/mL | IC50 (µg/ml), pseudovirus neutralization [2]: 0.59 µg/mL | IC50 (µg/ml), pseudovirus neutralization [3]: 1.7 µg/mL | IC50 [4]: 1.79 µg/mL | IC50 (µg/ml), pseudovirus neutralization [5]: > 50 µg/mL | IC50 (µg/ml), pseudovirus neutralization [6]: > 50 µg/mL | IC50 (µg/ml), pseudovirus neutralization [7]: > 50 µg/mL | IC50 (µg/ml), pseudovirus neutralization [8]: > 50 µg/mL | IC50 (µg/ml), pseudovirus neutralization [9]: > 50 µg/mL | IC50 (µg/ml), pseudovirus neutralization [10]: > 50 µg/mL | IC50 (µg/ml), pseudovirus neutralization [11]: 0.14 µg/mL | IC50 [12]: 0.54 µg/mL | IC50 (µg/ml), pseudovirus neutralization [13]: 0.95 µg/mL | IC50 (µg/ml), pseudovirus neutralization [14]: 0.78 µg/mL | IC50 (µg/ml), pseudovirus neutralization [15]: 13 µg/mL | IC50 [16]: > 50 µg/mL | IC50 (µg/ml), pseudovirus neutralization [17]: 2.41 µg/mL | IC50 (µg/ml), pseudovirus neutralization [18]: 16.8 µg/mL | IC50, pseudovirus neutralization [19]: > 50 µg/mL

5147_N06 (PGT-130) (antibody)
IC50 [20]: > 50 µg/mL | IC50 (µg/mL), pseudovirus neutralization [21]: > 50 µg/mL | Neutralization by PGT-130, IC50 [22]: 0.0346 µg/mL | Neutralization by PGT-130, IC80 [22]: 0.751 µg/mL | Neutralization by PGT-130, IC90 [22]: 5.72 µg/mL | Neutralization by PGT-130, IC95 [22]: > 10 µg/mL | neutralization IC50 (pseudovirus) [22]: 0.0346 µg/mL | IC50 neutralization [23]: 0.01 µg/mL | IC50 [24]: 1.4 µg/mL | IC50 (µg/mL), pseudovirus neutralization [25]: 1.21 µg/mL | IC50 (µg/mL), pseudovirus neutralization [26]: > 50 µg/mL | IC50 (µg/mL), pseudovirus neutralization [27]: 0.006 µg/mL | IC50 (µg/mL), pseudovirus neutralization [28]: > 50 µg/mL | IC50 [29]: 21.4 µg/mL | IC50 neutralization [30]: 0.935 µg/mL | IC50 (µg/mL), pseudovirus neutralization [31]: 0.651 µg/mL | neutralization IC50 [32]: 0.052 µg/mL | IC50 (µg/mL), pseudovirus neutralization [33]: 0.01 µg/mL | IC50 neutralization [34]: 5.18 µg/mL | IC50 neutralization [35]: > 50 µg/mL | IC50 neutralization [36]: 0.014 µg/mL | IC50 (µg/mL), pseudovirus neutralization [37]: 0.344 µg/mL | Neutralization by PGT-130, IC50 [38]: > 10 µg/mL | Neutralization by PGT-130, IC80 [38]: > 10 µg/mL | Neutralization by PGT-130, IC90 [38]: > 10 µg/mL | Neutralization by PGT-130, IC95 [38]: > 10 µg/mL | neutralization IC50 (pseudovirus) [38]: > 10 µg/mL | IC50 (µg/mL), pseudovirus neutralization [39]: > 50 µg/mL | IC50 (µg/mL), pseudovirus neutralization [40]: > 50 µg/mL

1495_C14 (PGC14) (antibody)
IC50 (µg/ml), pseudovirus neutralization [1]: > 50 µg/mL | IC50 (µg/ml), pseudovirus neutralization [2]: > 50 µg/mL | IC50 (µg/ml), pseudovirus neutralization [3]: > 50 µg/mL | IC50 [4]: > 50 µg/mL | IC50 (µg/ml), pseudovirus neutralization [5]: > 50 µg/mL | IC50 (µg/ml), pseudovirus neutralization [6]: > 50 µg/mL | IC50 (µg/ml), pseudovirus neutralization [7]: > 50 µg/mL | IC50 (µg/ml), pseudovirus neutralization [8]: > 50 µg/mL | IC50 (µg/ml), pseudovirus neutralization [9]: > 50 µg/mL | IC50 (µg/ml), pseudovirus neutralization [10]: > 50 µg/mL | IC50 (µg/ml), pseudovirus neutralization [11]: > 50 µg/mL | IC50 [12]: > 50 µg/mL | IC50 (µg/ml), pseudovirus neutralization [13]: > 50 µg/mL | IC50 (µg/ml), pseudovirus neutralization [14]: > 50 µg/mL | IC50 (µg/ml), pseudovirus neutralization [15]: > 50 µg/mL | IC50 [16]: 25 µg/mL | IC50 (µg/ml), pseudovirus neutralization [17]: > 50 µg/mL | IC50 (µg/ml), pseudovirus neutralization [18]: > 50 µg/mL | IC50, pseudovirus neutralization [19]: > 50 µg/mL

4E10 (antibody)
IC50 (µg/ml), pseudovirus neutralization [1]: 2.75 µg/mL | IC50 (µg/ml), pseudovirus neutralization [2]: 0.66 µg/mL | IC50 (µg/ml), pseudovirus neutralization [3]: 1.13 µg/mL | IC50 [4]: 2.61 µg/mL | IC50 (µg/ml), pseudovirus neutralization [5]: 9.72 µg/mL | IC50 (µg/ml), pseudovirus neutralization [6]: 11.9 µg/mL | IC50 (µg/ml), pseudovirus neutralization [7]: 0.91 µg/mL | IC50 (µg/ml), pseudovirus neutralization [8]: 0.37 µg/mL | IC50 (µg/ml), pseudovirus neutralization [9]: 18.3 µg/mL | IC50 (µg/ml), pseudovirus neutralization [10]: 2.49 µg/mL | IC50 (µg/ml), pseudovirus neutralization [11]: 0.04 µg/mL | IC50 [12]: 0.8 µg/mL | IC50 (µg/ml), pseudovirus neutralization [13]: 2.17 µg/mL | IC50 (µg/ml), pseudovirus neutralization [14]: 2.45 µg/mL | IC50 (µg/ml), pseudovirus neutralization [15]: 13.6 µg/mL | IC50 [16]: 2.02 µg/mL | IC50 (µg/ml), pseudovirus neutralization [17]: 3.7 µg/mL | IC50 (µg/ml), pseudovirus neutralization [18]: 1.02 µg/mL | IC50, pseudovirus neutralization [19]: > 50 µg/mL

b12 (antibody)
IC50 (µg/ml), pseudovirus neutralization [1]: > 50 µg/mL | IC50 (µg/ml), pseudovirus neutralization [2]: > 50 µg/mL | IC50 (µg/ml), pseudovirus neutralization [3]: 0.13 µg/mL | IC50 [4]: > 50 µg/mL | IC50 (µg/ml), pseudovirus neutralization [5]: > 50 µg/mL | IC50 (µg/ml), pseudovirus neutralization [6]: > 50 µg/mL | IC50 (µg/ml), pseudovirus neutralization [7]: 7.75 µg/mL | IC50 (µg/ml), pseudovirus neutralization [8]: > 50 µg/mL | IC50 (µg/ml), pseudovirus neutralization [9]: > 50 µg/mL | IC50 (µg/ml), pseudovirus neutralization [10]: > 50 µg/mL | IC50 (µg/ml), pseudovirus neutralization [11]: > 50 µg/mL | IC50 [12]: 0.89 µg/mL | IC50 (µg/ml), pseudovirus neutralization [13]: 45.6 µg/mL | IC50 (µg/ml), pseudovirus neutralization [14]: 6.16 µg/mL | IC50 (µg/ml), pseudovirus neutralization [15]: 1.01 µg/mL | IC50 [16]: 7.64 µg/mL | IC50 (µg/ml), pseudovirus neutralization [17]: 0.26 µg/mL | IC50 (µg/ml), pseudovirus neutralization [18]: > 50 µg/mL | IC50, pseudovirus neutralization [19]: > 50 µg/mL
